In US20140178405A1:

Assays:
Assay in all cases: cell-based or functional assay
[1] = target: native VP6 of bovine rotavirus C486 (SbI; P[1]G6), in the virus (bovine rotavirus strain C486)
[2] = target: native VP6 of bovine rotavirus IND (SbI; P[5]G6), in the virus (bovine rotavirus strain IND)
[3] = target: native VP6 of equine rotavirus H2 (Sb no I, no II; P[12]G3), in the virus (equine rotavirus strain H2)
[4] = target: native VP6 of human rotavirus Wa (SbII; P[8]G1), in the virus (human rotavirus strain Wa)
native VP6 of human rotavirus Wa (SbII; P[8]G1), in the virus (human rotavirus strain Wa), sequence (P03530 whole entry): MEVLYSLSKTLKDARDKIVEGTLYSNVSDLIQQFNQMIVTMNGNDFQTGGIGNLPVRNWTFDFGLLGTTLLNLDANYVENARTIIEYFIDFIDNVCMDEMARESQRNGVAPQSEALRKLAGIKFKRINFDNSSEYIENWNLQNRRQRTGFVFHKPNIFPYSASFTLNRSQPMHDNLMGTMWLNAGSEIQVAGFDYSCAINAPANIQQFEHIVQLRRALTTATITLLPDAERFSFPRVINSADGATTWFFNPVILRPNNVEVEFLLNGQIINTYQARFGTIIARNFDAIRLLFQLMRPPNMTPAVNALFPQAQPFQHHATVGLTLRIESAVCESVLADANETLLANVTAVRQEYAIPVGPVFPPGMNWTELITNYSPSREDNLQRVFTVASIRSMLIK

native VP6 of equine rotavirus H2 (Sb no I, no II; P[12]G3), in the virus (equine rotavirus strain H2), sequence (P16488 whole entry): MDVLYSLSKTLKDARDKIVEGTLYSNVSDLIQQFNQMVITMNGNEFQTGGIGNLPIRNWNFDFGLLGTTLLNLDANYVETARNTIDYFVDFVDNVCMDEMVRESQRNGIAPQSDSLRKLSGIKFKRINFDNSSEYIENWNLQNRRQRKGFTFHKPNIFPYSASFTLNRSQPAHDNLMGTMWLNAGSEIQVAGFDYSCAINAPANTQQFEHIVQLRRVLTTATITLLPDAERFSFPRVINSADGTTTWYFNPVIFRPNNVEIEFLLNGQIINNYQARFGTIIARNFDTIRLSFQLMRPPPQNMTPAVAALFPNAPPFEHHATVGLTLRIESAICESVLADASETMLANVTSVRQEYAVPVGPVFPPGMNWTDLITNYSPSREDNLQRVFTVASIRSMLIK

Molecule | VN antibody titre (inverse of the highest VHH dilution that reduces >80% of the FFU per 100 FFU), VHH at 2 mg/ml (titre (reciprocal dilution)) [1] | VN antibody titre (inverse of the highest VHH dilution that reduces >80% of the FFU per 100 FFU), VHH at 2 mg/ml (titre (reciprocal dilution)) [2] | VN antibody titre (inverse of the highest VHH dilution that reduces >80% of the FFU per 100 FFU), VHH at 2 mg/ml (titre (reciprocal dilution)) [3] | VN antibody titre (inverse of the highest VHH dilution that reduces >80% of the FFU per 100 FFU), VHH at 2 mg/ml (titre (reciprocal dilution)) [4] | further results
non-related VHH, directed against a cellular protein |  |  |  |  | VN antibody titre (inverse of the highest VHH dilution that reduces >80% of the FFU per 100 FFU), VHH at 0.4 mg/ml (titre (reciprocal dilution)) [1]: < 8; VN antibody titre (inverse of the highest VHH dilution that reduces >80% of the FFU per 100 FFU), VHH at 0.4 mg/ml (titre (reciprocal dilution)) [2]: < 8; VN antibody titre (inverse of the highest VHH dilution that reduces >80% of the FFU per 100 FFU), VHH at 0.4 mg/ml (titre (reciprocal dilution)) [3]: < 8; VN antibody titre (inverse of the highest VHH dilution that reduces >80% of the FFU per 100 FFU), VHH at 0.4 mg/ml (titre (reciprocal dilution)) [4]: < 8
VHH 3B2 anti VP6 (VHH) VHH: DVQLQASGGGLAQAGDSLTLSCAASGRTFSGYVVGWFRQAPGAEREFVGAIRWSEDSTWYGDSMKGRILISRNNIKNTVNLQMFNLKPEDTAVYVCAAGAGDIVTTETSYNYWGRGTQVTVSS | 1024 | 1024 | 512 | 8192 | 
VHH 3A6 anti VP6 (VHH) VHH: EVQLQASGGGFVQPGGSLSLSCAVSGRSFGDDVMGWFRQAPGKEREFVSAIRFRSNSPFYGDPGKGRFTIARDSAKDTVYLHMYRLRPDDTAVYYCAVGDGALVNRASDYTYWGQGTQVTVSS | 1024 | 1024 | 128 | 2048 | 
bivalent VHH biv2KA4 (bispecific antibody) MADVQLQASGGGLVQAGDSLRLSCVQSGPGRYGVGWFRQAPGKEREFVAAVSGSGGSKYYGDSVQGRFTISKDDAKNTVYLQMNNLKPEDTAVYYCAVRRTYSGSNLWHRSDEYDSWGPGTQVTVSSSGPSTPPRPSPSTPPSDVQLQASGGGLVQAGDSLRLSCVQSGPGRYGVGWFRQAPGKEREFVAAVSGSGGSKYYGDSVQGRFTISKDDAKNTVYLQMNNLKPEDTAVYYCAVRRTYSGSNLWHRSDEYDSWGPGTQVTVSSGRHHHHHH |  |  |  |  | VN antibody titre (inverse of the highest VHH dilution that reduces >80% of the FFU per 100 FFU), VHH at 0.5 mg/ml (titre (reciprocal dilution)) [1]: < 8; VN antibody titre (inverse of the highest VHH dilution that reduces >80% of the FFU per 100 FFU), VHH at 0.5 mg/ml (titre (reciprocal dilution)) [2]: < 8; VN antibody titre (inverse of the highest VHH dilution that reduces >80% of the FFU per 100 FFU), VHH at 0.5 mg/ml (titre (reciprocal dilution)) [3]: < 8; VN antibody titre (inverse of the highest VHH dilution that reduces >80% of the FFU per 100 FFU), VHH at 0.5 mg/ml (titre (reciprocal dilution)) [4]: 32
VHH 2KD1 anti VP6 (VHH) VHH: DVQLQASGGGFVQPGDSLSLSCAASGGTFSSYSIGWFRQGPGKEREFVATISSSDSPWYGEPAKGRFTVARVNAKNTAYLHLNRLKPEDTATYYCAAGSVQHMANENEYVYWGQGTQVTVSS | 2048 | 2048 | 512 | 8192 | 
VHH 2KA4 anti VP6 (VHH) VHH: DVQLQASGGGLVQAGDSLRLSCVQSGPGRYGVGWFRQAPGKEREFVAAVSGSGGSKYYGDSVQGRFTISKDDAKNTVYLQMNNLKPEDTAVYYCAVRRTYSGSNLWHRSDEYDSWGPGTQVTVSS | < 8 | < 8 | < 8 | < 8 | 
